Source: the RNAGym collection of RNA variant scans (doi:10.1073/pnas.2313332121)

B1: TPR t1 (parent)
chain: GACCAAUCUGCCCUCAGAGCUCGAGAACAUCUUCGGAUGCAGAGGAGGCAGGCUUCGGUGGCGCGAUAGCGCCAACGUCCUCAACCUCCAAUGCAUCCCACCACAUGAUGAUGCCUGAAGAGCCUUGGUUUUUUG

Variants of: B1
Assay: polymerase ribozyme fitness, log enrichment relative to wild type (log ratio); higher = more active; in vitro selection for triplet polymerase activity
Method in brief: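 PCR was used to build mutant libraries for each subunit of a heterodimeric triplet polymerase ribozyme, which were then transcribed. A single in vitro selection round, in triplicate, used a frozen incubation at −7 °C and recovered extended constructs by gel excision, streptavidin beads and RT-PCR. Fitness is the logarithm of genotype enrichment relative to wild-type enrichment, averaged over replicates with inverse-variance weights. The logarithm is base 2, and after Illumina sequencing only genotypes with ≥10 input reads and ≥1 read per output were kept.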

Variant | polymerase ribozyme fitness (log ratio)
A6G C13U G19U C56A | -3.79
A6G C15U C56U G69U U112A G117A | -1.54
A6C A18C C49U C70U C82U | -5.19
A6C G48U C53U U59G C70U A90C | -4.07
A6G U112A | 1.64
A6C A83C C97U G110A | -1.92
A6U G57A G58C A103C A105C | -6.92
A5U A83C | -0.98
A6U C13U G39C | -0.104
A6G C8U C98G | -4.61
A6U C88U | -1.02
A6U C88A | -0.42
A5U A18C | -1.31
A6C G42C | -1.69
A5U C11G A16U G60U U87A A103C | -5.47
A5U U14C A50U C72A C124A U131G | -1.27
A6G C97U | -0.751
A6G G71A | -0.397
A5U C11A G58U C70U C101U | -2.57
A6U C53G C124U U129A | -0.73
A5U C8G C20U C40A | -3.31
A6G A24C C88G C102A A111U G122C U133G | -6.51
A5U G63U A75U | -0.67
A6C G44U C64U U96A C104A | -3.82

Variant | polymerase ribozyme fitness (log ratio)
A6C A18U G47U U125G | -3.87
A5U C49A A95G | -0.603
A6U A41C C79G G113C U133A | -4.49
A5U C40G G71U U87G | -3.8
A6C G42U C79U A90C | -0.731
A6G C80U C115G | -1.33
A6U U92A G117U | -5.86
A6U G42U | -1.17
A6U U38A G63C C79U A84G C89U | -3.61
A6C G10A A37G G77A C79U C124A | -0.0414
A6G C64U | 0.116
A6U C22U C64U C124U | -4.12
A5U G71A C98U G127A G128U | -5.31
A5U G17A C49A G60A C89U | -5.58
A6U C22A C40A G61U | -5.59
A6G C62U C73U U112G | 0.725
A6U C22A A43C C79G C97U | -8.2
U7A A29U G60U C97U G113C G120U U133A | -4.07
A6U G45U C101A | -2.89
A6U G117A | -0.258
A5U U87A | -0.245
A5U U87G | -0.121
A5G G51U A83U A121C | -3.06
A6U C124A | 1.49

Variant | polymerase ribozyme fitness (log ratio)
A6C U30G G61U A84C U112A | -3.92
A6U A46G C53G G117U | -2.98
A6G C12U G69C U112C C123A U131A | 0.491
A5U U92C | -1.56
A6U U96C | -0.215
A6C C101A | -1.63
A5U G63U C102A | -3.19
A5U U7A C40G U55G C56U G60A | -3.04
A6U A74G | -0.0819
A6U C72A C102A C123G | 0.361
A6C C40U G107U C124U | -4.44
A6G G10U C56A G57A G58A G69U C86U | -1.09
A5U U112G | -0.587
A6U U106A U116A | -2.08
A6G G39A C86U G117A | -0.696
A5U G57A C70U | -1.67
A6U G44C C72G G110A C115A | -4.85
A6G A74U C76U C115A | -0.102
A5U C70A C97U U125A | -2.48
A6U C13U C62U U132A | -0.793
A6U G10U C15G C28A A100C C123U | -5.42
A5U C124A | 2.04
A5G U9G A111U U126A | -3.21
A6U A16U A50C A83C U129G | -3.64

Variant | polymerase ribozyme fitness (log ratio)
A6U C15G A43U C115U U116G G120A G122A | -3.93
A6U U106G G113C | -3.9
A6U C40U A84G C89U G113U G122C | -5.19
A6U C73U | 0.309
A6U C73A | 0.0629
A6G G17C | -4.39
A6C C73U C85A C114U | -3.29
A6U G19A G44A C53A G57A A100U C124U | -4.72
A6U C49G G122A | -0.638
A5G G117C | -3.71
A5U U81A A90C U92C | -3.49
U7A A24C C40G G93U U112A C123U | -5.82
A5U C13A C15G C56A A121U | -1.44
A6U U112G U130A | 0.321
A6U A41G | 0.32
A5U G47C C62U G113C A118U | -4.96
A6G C12U G58A G113C | -1.75
A6U C8A G44U G107A U112A | -6.05
A5U A43U G63A | -3.99
A6G U87A U92C A95C C114U | -3.66
U7A A18U G71A A119U G122U G135U | -5.8
A6C U81C U87G | -0.0503
A6G C11G C13G C99A C102U | -5.35
A5U C88G G120C | 0.286

Variant | polymerase ribozyme fitness (log ratio)
A6U C72U U96C | -0.187
A6C C97A | -4.04
A5U G63U G65C C80U C85U A95G C97U C115U | -6.48
A6C G71C C79U | -0.784
A6U A27U A121G U130A | -0.823
A6G G39A | 0.16
A5U C72G | -0.174
A5U C56A C102A U116C | -5.7
A5U C31A G71A A84C C124A | -6.43
A5U C12U G71U C114A G128A | -4.71
A6U C11G G48U C56U C64U A83C | -4.78
A6U C101A | -0.91
A6U C12G G45C A74U C94U | -0.942
A6U C49U C53U C62A G110A | -5.45
U7A A27C C49U U55G | -4.4
A6U C123G | 1.29
A6G C115A | 0.525
A6U A43U U96A G122A | -2.28
A6U G10A G71A | 0.159
A6C A50U C76G U96G | -2.15
A6G C11A C34A G47A A111C | -5.04
A6U G52C C56U C80G A121G | -1.97
A6U G42U C89G C115A U125C | -3.18
A6G G39A C123U U133A | 0.797

Variant | polymerase ribozyme fitness (log ratio)
A5U G45U | -1.13
A5U G45A | -1.11
A6U U9C | 0.514
A6G U7A | 0.167
A6G C11G G52U U59A G60C | -0.455
A6U C28U C123U | -0.417
A5U G48U | -1.69
A5U C56A | -0.829
A6G C28G C115G U125G | -3.74
A5U G69U A91C G113A U116C U130C | -5.42
A6U C64U U92G | -3.05
A5U G52C G61C U129A | -2.2
A5G U14A C73U | -2.23
A5U A6U C62G C104U | -1.25
A6G G42C G52U | -2.37
A6G C11U G48C C64U G113A G117A | -7.08
A5U A41U G61A C82G G120A U125G | -2.7
A5U C11A G42C G63A C88U U106A A121C U125A | -5.18
A6C G10A C13U G36U G51U G77C A90C G120U | -4.97
A5U U9A G48U C49G C101A | -1.73
A5U G42C U87A A91G | -1.35
A6C G45A | -2.73
A6C C11G C40U C123U | 0.00495
A5U C64G C88G C104A A121G | -7.55

Variant | polymerase ribozyme fitness (log ratio)
A5U G45C G60A | -0.71
A6G A41G A50G C70U | -0.773
A6G G69A C73A | -2.9
A6U U9C G60C | -0.604
A6U G69A C115U G120C | -5.82
A6C G17C U87C | -3.71
A6G C8G G69U | 0.471
A6C G47U G69C C85A | -4.06
A6U C12U G110U U130C | -0.715
A5G U9A G52U | -1.25
A6U C49A C62U | -1.33
A6U G10C G61A C89A U125A | -2.03
A6U U59C A119G | 0.571
A6U U54A C62U | 0.317
A6C U9C A46C C62U C82U | -0.79
A5U C15U A16U U125A | -4.8
A6C G69U U78C | 0.0885
A6U C34G G45C C49A C123U | -5.99
U7A A18U U59C | -2.69
A6C A50C G127A G128U | -3.5
A5U A27U | -3.65
A6U G69A | -2.02
A5G U112C C124G G128A | -0.522
